{"source": "paper PMC6899468", "origin": "cited, not measured here", "biological_target": "neuropilin-1 (Homo sapiens) (UniProt O14786)", "sequence (O14786 22-856)": "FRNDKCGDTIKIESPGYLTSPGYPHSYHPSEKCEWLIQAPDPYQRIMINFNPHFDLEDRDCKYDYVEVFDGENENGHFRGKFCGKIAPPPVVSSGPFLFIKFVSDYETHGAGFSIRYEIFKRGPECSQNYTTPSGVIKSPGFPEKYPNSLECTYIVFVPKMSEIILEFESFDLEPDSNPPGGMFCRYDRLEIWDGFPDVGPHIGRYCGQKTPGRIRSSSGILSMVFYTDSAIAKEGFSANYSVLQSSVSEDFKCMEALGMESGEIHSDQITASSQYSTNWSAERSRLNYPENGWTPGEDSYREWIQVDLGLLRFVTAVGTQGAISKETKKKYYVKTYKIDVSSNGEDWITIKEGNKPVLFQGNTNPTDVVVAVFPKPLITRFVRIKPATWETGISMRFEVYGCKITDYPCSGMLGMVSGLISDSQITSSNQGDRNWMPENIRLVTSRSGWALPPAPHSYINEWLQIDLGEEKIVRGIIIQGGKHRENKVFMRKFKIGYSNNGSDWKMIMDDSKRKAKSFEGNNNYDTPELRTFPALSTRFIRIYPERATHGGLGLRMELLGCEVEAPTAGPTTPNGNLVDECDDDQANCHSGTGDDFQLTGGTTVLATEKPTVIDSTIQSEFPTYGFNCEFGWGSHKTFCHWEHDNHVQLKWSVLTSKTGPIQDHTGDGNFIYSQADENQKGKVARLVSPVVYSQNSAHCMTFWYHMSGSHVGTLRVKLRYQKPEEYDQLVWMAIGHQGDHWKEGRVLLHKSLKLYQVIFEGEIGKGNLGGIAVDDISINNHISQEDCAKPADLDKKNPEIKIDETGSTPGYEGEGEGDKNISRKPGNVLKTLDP", "data": [{"substance": "chromogranin A fragment hCgA1-373 1-373 (from UniProt P10645)", "values": [{"measurement": "Kd", "result": 3.49, "unit": "nM"}]}]}
